We go through 1 protein from article PMC4756830 (Nucleic Acids Research, 2015).

The series deals with the molecule itself. Put plainly: SEC-MALS.

B1: GabR from Bacillus subtilis with C-terminal His6-tag (natural protein)
chain: MDITITLDRSEQADYIYQQIYQKLKKEILSRNLLPHSKVPSKRELAENLKVSVNSVNSAYQQLLAEGYLYAIERKGFFVEELDMFSAEEHPPFALPDDLKEIHIDQSDWISFSHMSSDTDHFPIKSWFRCEQKAASRSYRTLGDMSHPQGIYEVRAAITRLISLTRGVKCRPEQMIIGAGTQVLMQLLTELLPKEAVYAMEEPGYRRMYQLLKNAGKQVKTIMLDEKGMSIAEITRQQPDVLVTTPSHQFPSGTIMPVSRRIQLLNWAAEEPRRYIIEDDYDSEFTYDVDSIPALQSLDRFQNVIYMGTFSKSLLPGLRISYMVLPPELLRAYKQRGYDLQTCSSLTQLTLQEFIESGEYQKHIKKMKQHYKEKRERLITALEAEFSGEVTVKGANAGLHFVTEFDTRRTEQDILSHAAGLQLEIFGMSRFNLKENKRQTGRPALIIGFARLKEEDIQEGVQRLFKAVYGHKKIPVTGD
Regarding B1, the “stoichiometry N” value amounted to 2.
